# Publication PMC8437784 (The Journal of Biological Chemistry, 2020)
# T1: Recombinant N-terminal His6-tagged TRF1 (from human) (human), P54274
# T1 chain: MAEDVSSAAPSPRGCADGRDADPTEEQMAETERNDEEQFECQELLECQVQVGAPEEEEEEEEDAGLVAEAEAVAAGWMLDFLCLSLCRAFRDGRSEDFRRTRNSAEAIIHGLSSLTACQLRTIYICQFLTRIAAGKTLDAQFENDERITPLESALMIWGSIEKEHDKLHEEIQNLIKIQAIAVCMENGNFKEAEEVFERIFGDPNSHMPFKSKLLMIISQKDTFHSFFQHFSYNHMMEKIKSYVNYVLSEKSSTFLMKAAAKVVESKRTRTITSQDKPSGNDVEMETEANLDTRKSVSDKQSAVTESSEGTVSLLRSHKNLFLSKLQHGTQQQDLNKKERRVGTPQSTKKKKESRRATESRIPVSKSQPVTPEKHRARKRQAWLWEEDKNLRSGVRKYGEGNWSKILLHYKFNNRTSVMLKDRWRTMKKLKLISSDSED
# T2: N-terminal HA-tagged TIN2L (HA-TIN2L, 1-451 aa) (human, UniProt Q9BSI4-1 1-451)
# T2 sequence (looked up): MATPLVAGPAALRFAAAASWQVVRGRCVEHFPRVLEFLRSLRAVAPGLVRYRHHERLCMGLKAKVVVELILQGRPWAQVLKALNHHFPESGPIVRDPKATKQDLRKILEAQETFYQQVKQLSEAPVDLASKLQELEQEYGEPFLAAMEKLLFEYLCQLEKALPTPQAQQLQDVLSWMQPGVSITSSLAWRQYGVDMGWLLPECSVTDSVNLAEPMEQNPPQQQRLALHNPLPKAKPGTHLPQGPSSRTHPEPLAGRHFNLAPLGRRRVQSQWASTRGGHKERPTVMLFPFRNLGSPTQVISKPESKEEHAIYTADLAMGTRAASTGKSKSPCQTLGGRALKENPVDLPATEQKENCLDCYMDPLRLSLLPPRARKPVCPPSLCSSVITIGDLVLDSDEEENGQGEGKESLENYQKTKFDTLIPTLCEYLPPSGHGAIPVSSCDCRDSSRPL
# T3: TIN2L (UniProt Q9BSI4 1-451)
# T3 sequence: T2 sequence (looked up)
# T4: TIN2S (UniProt Q9BSI4-2 1-354)
# T4 sequence: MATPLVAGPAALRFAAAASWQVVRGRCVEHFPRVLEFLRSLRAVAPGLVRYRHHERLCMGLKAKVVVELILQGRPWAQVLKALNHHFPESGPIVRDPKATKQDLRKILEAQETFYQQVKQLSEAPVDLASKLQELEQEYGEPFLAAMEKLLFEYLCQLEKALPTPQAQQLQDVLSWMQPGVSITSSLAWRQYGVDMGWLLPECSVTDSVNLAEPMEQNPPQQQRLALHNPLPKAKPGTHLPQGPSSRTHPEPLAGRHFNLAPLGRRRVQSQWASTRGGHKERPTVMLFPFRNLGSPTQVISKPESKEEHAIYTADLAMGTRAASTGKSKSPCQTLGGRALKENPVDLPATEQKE
# B1: N-terminal HA-tagged TIN2S (HA-TIN2S, 1-354 aa) (natural protein, human, UniProt Q9BSI4-2 1-354, looked up)
# chain: T4 sequence
# B2: Recombinant N-terminal His6-tagged TRF1 (from human) (natural protein, UniProt P54274 1-439, looked up)
# chain: T1 chain
# B3: 48 bp telomeric dsDNA, 3 TTAGGG (dsDNA)
# DNA 1: TTAGGGTTAGGGTTAGGGATGTCCAGCAAGCCAGAATTCGGCAGCGTA
# DNA 2: TACGCTGCCGAATTCTGGCTTGCTGGACATCCCTAACCCTAACCCTAA
# Experiments:
# [1] = target: B2; experiment: DNA tightrope assay
# [2] = target: T1, Recombinant N-terminal His6-tagged TRF1 …; experiment: AFM volume analysis; settings: remark: other sources report otherwise
# [3] = target: T2, N-terminal HA-tagged TIN2L (HA-TIN2L, …); experiment: DNA tightrope assay
# TIN2L = target: T3, TIN2L; experiment: EMSA
# TIN2S = target: T4, TIN2S; experiment: EMSA
# TRF1;TIN2S = TRF1;TIN2S (human;human?, UniProt P54274;Q9BSI4-2 1-439;1-354, |); experiment: EMSA
# TRF1;TIN2L = TRF1;TIN2L (human;human?, UniProt P54274;Q9BSI4 1-439;1-451, |); experiment: EMSA
# TRF1 = TRF1 (human, UniProt P54274 1-439); experiment: EMSA
binder,measurement,setting,value
B1,binding result,[1],binds
B2,stoichiometry N,[2],2
same,binding result,[3],binds
B3,binding result,TIN2L,no binding
same,binding result,TIN2S,no binding
same,binding result,TRF1;TIN2S,binds
same,binding result,TRF1;TIN2L,binds
same,binding result,TRF1,binds
